According to article PMC7804450:

Biological target: T1, tuberous sclerosis complex 1 (TSC1), human, subunit of the purified TSC complex (human), Q92574
T1 chain: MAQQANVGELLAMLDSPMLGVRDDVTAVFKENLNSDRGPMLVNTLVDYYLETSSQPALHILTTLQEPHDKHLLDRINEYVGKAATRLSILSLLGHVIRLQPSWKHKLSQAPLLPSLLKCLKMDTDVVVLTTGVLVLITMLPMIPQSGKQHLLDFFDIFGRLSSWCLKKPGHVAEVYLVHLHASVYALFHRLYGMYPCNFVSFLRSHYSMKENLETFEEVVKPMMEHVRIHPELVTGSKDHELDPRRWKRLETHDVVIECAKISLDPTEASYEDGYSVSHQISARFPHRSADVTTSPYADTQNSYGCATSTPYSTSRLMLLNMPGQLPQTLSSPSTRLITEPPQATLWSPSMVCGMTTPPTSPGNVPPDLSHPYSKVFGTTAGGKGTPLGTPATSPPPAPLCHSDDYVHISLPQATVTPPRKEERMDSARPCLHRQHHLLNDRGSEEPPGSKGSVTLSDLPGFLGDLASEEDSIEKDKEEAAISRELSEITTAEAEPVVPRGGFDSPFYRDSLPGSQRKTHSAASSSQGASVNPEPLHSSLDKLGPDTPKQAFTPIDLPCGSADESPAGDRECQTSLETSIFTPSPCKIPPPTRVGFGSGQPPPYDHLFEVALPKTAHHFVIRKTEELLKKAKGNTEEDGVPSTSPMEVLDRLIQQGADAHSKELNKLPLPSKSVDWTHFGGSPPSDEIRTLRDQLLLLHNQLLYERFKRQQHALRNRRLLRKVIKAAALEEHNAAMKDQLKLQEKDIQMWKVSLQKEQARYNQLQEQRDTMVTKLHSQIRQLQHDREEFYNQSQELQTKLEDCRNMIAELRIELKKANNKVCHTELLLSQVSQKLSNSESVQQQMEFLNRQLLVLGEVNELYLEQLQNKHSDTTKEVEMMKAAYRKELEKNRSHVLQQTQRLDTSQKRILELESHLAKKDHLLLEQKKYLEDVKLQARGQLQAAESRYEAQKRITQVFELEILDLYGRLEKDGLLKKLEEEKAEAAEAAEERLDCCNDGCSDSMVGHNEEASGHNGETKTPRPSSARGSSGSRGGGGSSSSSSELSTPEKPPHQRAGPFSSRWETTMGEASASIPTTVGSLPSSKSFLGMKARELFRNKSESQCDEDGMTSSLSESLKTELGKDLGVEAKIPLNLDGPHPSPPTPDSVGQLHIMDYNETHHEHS
Assay: cryo-EM structure; human TSC complex (TSC1, TSC2, TBC1D7) co-expressed in Expi293F, purified, cross-linked by Grafix (glutaraldehyde); single particle reconstruction, 4.4 Å overall, core 3.6 Å, wings 3.9 and 4.1 Å
Details: remark: other sources report otherwise

B1: tuberous sclerosis complex 1 (TSC1), human, subunit of the purified TSC complex, Q92574 1-1164 (natural protein)
chain: MAQQANVGELLAMLDSPMLGVRDDVTAVFKENLNSDRGPMLVNTLVDYYLETSSQPALHILTTLQEPHDKHLLDRINEYVGKAATRLSILSLLGHVIRLQPSWKHKLSQAPLLPSLLKCLKMDTDVVVLTTGVLVLITMLPMIPQSGKQHLLDFFDIFGRLSSWCLKKPGHVAEVYLVHLHASVYALFHRLYGMYPCNFVSFLRSHYSMKENLETFEEVVKPMMEHVRIHPELVTGSKDHELDPRRWKRLETHDVVIECAKISLDPTEASYEDGYSVSHQISARFPHRSADVTTSPYADTQNSYGCATSTPYSTSRLMLLNMPGQLPQTLSSPSTRLITEPPQATLWSPSMVCGMTTPPTSPGNVPPDLSHPYSKVFGTTAGGKGTPLGTPATSPPPAPLCHSDDYVHISLPQATVTPPRKEERMDSARPCLHRQHHLLNDRGSEEPPGSKGSVTLSDLPGFLGDLASEEDSIEKDKEEAAISRELSEITTAEAEPVVPRGGFDSPFYRDSLPGSQRKTHSAASSSQGASVNPEPLHSSLDKLGPDTPKQAFTPIDLPCGSADESPAGDRECQTSLETSIFTPSPCKIPPPTRVGFGSGQPPPYDHLFEVALPKTAHHFVIRKTEELLKKAKGNTEEDGVPSTSPMEVLDRLIQQGADAHSKELNKLPLPSKSVDWTHFGGSPPSDEIRTLRDQLLLLHNQLLYERFKRQQHALRNRRLLRKVIKAAALEEHNAAMKDQLKLQEKDIQMWKVSLQKEQARYNQLQEQRDTMVTKLHSQIRQLQHDREEFYNQSQELQTKLEDCRNMIAELRIELKKANNKVCHTELLLSQVSQKLSNSESVQQQMEFLNRQLLVLGEVNELYLEQLQNKHSDTTKEVEMMKAAYRKELEKNRSHVLQQTQRLDTSQKRILELESHLAKKDHLLLEQKKYLEDVKLQARGQLQAAESRYEAQKRITQVFELEILDLYGRLEKDGLLKKLEEEKAEAAEAAEERLDCCNDGCSDSMVGHNEEASGHNGETKTPRPSSARGSSGSRGGGGSSSSSSELSTPEKPPHQRAGPFSSRWETTMGEASASIPTTVGSLPSSKSFLGMKARELFRNKSESQCDEDGMTSSLSESLKTELGKDLGVEAKIPLNLDGPHPSPPTPDSVGQLHIMDYNETHHEHS
Binder B1 has a stoichiometry N of 2.
